The results in this text go back to patent US20220401476A1.

Experiment [1] addresses CD19 surface antigen on Raji lymphoma target-cells (#CCL-86, ATCC) (UniProt P15391). Briefly: cell-based or functional assay.
The target of experiment [2] is rhIL-18 (IL-18, #9124-IL-010, R&D Systems) (human) (UniProt Q14116). The experiment is described as follows: cell-based or functional assay.
UniProt Q14116, sequence (Q14116 37-193 limits assumed): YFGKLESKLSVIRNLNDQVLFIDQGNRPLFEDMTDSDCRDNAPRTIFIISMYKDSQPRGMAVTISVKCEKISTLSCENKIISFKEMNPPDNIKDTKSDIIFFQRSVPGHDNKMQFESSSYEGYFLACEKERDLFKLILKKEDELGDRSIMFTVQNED

UniProt P15391, sequence (P15391 20-556 limits assumed): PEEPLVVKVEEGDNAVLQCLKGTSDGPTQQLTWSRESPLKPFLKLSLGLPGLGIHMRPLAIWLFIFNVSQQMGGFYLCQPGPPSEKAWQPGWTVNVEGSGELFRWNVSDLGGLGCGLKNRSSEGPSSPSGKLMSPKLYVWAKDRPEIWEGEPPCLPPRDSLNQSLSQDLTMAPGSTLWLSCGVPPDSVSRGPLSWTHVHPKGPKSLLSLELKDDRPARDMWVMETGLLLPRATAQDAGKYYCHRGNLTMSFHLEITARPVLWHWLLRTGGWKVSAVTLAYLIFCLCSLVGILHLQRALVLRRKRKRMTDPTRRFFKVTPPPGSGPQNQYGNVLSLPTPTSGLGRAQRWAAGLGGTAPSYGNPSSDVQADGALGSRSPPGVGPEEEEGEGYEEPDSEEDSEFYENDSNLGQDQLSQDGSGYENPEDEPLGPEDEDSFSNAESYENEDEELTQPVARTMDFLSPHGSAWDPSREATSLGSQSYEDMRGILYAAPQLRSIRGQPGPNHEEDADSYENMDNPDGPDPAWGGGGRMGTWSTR

In the case of “CD19-specific CAR of CD19SCFV-CD28-4-1BB-CD3 CAR-T-cells (#PM-CAR1003-10M, ProMAB)”, in experiment [1], the Mean concentration (pg/mL) of IFN-γ in culture medium, Tumor + CAR-T, day 1 worked out at 6910 pg/mL; the Mean cumulative concentration (pg/mL) of IFN-γ in culture medium, Tumor + CAR-T, day 2 was found to be 21500 pg/mL; the Mean cumulative concentration (pg/mL) of IFN-γ in culture medium, Tumor + CAR-T, day 3 worked out at 32700 pg/mL.

As to “recombinant human IL-18BP (rhIL-18BP, Tadekinig alfa)”, in experiment [2], the IL-18BP-mediated inhibition (%) of IFN-γ in Tumor + CAR-T + IL-18 + IL-12 culture, day 1 was 82%; the IL-18BP-mediated inhibition (%) of IFN-γ in Tumor + CAR-T + IL-18 + IL-12 culture, day 2 was 79%; the IL-18BP-mediated inhibition (%) of IFN-γ in Tumor + CAR-T + IL-18 + IL-12 culture, day 3 was 75%; the IL-18BP-mediated inhibition (%) of IFN-γ in Tumor + CAR-T + IL-18 culture, day 1 turned out to be 100%. In experiment [2], the IL-18BP-mediated inhibition (%) of IFN-γ in Tumor + CAR-T + IL-18 culture, day 2 is 92%; the IL-18BP-mediated inhibition (%) of IFN-γ in Tumor + CAR-T + IL-18 culture, day 3 was determined as 79%; the reduction of IFN-γ production boosted by rhIL-12 and rhIL-18, average over three days worked out at 80%.
